Measured values published in doi:10.1101/2024.09.24.614852.

Biological target: tau 2N4R wild type (tau-441) (human, UniProt P10636-8 1-441)
Test: EMSA

B1: 24-bp duplex (dsDNA)
DNA 1: TCGACACGGAAATGTTGAATACTA
DNA 2: TAGTATTCAACATTTCCGTGTCGA
binding result: binds
